T1: human GHRH receptor (human pituitary membrane homogenates) (human, UniProt Q02643 23-423)
T1 construct: whole, on cells; Native receptor in human pituitary membrane homogenates, not on intact cells; also called hGHRH receptor
T1 sequence (looked up): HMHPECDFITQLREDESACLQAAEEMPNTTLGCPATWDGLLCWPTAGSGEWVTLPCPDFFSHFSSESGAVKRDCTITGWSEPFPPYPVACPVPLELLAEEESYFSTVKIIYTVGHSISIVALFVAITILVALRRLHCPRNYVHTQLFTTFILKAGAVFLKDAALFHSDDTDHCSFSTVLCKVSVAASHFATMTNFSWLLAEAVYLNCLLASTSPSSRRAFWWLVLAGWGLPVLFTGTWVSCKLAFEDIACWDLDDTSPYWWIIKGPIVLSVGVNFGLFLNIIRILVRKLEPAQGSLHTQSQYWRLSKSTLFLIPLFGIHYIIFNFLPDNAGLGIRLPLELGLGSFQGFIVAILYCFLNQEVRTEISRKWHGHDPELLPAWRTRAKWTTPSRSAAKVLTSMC

T2: human GHRH receptor (human pituitary membrane homogenates) (human), Q02643
T2 chain: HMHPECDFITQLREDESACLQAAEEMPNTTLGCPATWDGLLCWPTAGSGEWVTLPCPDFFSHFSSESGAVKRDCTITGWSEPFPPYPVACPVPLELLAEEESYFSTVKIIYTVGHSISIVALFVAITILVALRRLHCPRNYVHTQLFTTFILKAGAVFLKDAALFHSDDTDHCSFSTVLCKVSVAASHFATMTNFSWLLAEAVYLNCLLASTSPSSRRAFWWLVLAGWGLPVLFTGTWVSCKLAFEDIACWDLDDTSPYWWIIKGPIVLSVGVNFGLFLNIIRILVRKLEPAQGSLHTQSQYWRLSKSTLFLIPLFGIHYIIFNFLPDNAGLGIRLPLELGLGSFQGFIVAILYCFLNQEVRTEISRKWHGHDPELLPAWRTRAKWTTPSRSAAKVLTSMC

B1: P-25504 [Dat^1, D-Abu^2, Orn^12, Abu^15, Orn^21, Nle^27, Gab^30]hGHRH(1-30)NH2 (peptide)
peptide: [Desaminotyrosyl][dAbu]DAIFTNSYR[Orn]VL[Abu]QLSAR[Orn]LLQDI[Nle]SR[GABA]-NH2
SMILES: CCCC[C@H](NC(=O)[C@@H](NC(=O)[C@H](CC(=O)O)NC(=O)[C@H](CCC(N)=O)NC(=O)[C@H](CC(C)C)NC(=O)[C@H](CC(C)C)NC(=O)[C@H](CCCN)NC(=O)[C@H](CCCNC(=N)N)NC(=O)[C@H](C)NC(=O)[C@H](CO)NC(=O)[C@H](CC(C)C)NC(=O)[C@H](CCC(N)=O)NC(=O)[C@H](CC)NC(=O)[C@H](CC(C)C)NC(=O)[C@@H](NC(=O)[C@H](CCCN)NC(=O)[C@H](CCCNC(=N)N)NC(=O)[C@H](Cc1ccc(O)cc1)NC(=O)[C@H](CO)NC(=O)[C@H](CC(N)=O)NC(=O)[C@@H](NC(=O)[C@H](Cc1ccccc1)NC(=O)[C@@H](NC(=O)[C@H](C)NC(=O)[C@H](CC(=O)O)NC(=O)[C@@H](CC)NC(=O)CCc1ccc(O)cc1)[C@@H](C)CC)[C@@H](C)O)C(C)C)[C@@H](C)CC)C(=O)N[C@@H](CO)C(=O)N[C@@H](CCCNC(=N)N)C(=O)NCCCC(N)=O
notes: also called Peptide 25504
B2: P-27405 [N-Me-Tyr^1, Gln^8, Orn^12, Abu^15, Orn^21, Nle^27]hGHRH(1-29)NH-CH3 (peptide)
chain: [NMeY]ADAIFTQSYR[Orn]VL[Abu]QLSAR[Orn]LLQDI[Nle]SR-NHMe
B3: P-21301 [N-Me-Tyr^1, Orn^12, Abu^15, Orn^21, Nle^27, Asp^28, Amc^30]hGHRH(1-30)NH2 (peptide)
chain: [NMeY]ADAIFTNSYR[Orn]VL[Abu]QLSAR[Orn]LLQDI[Nle]DR[Aoc]-NH2
modifications: N-terminus assumed
SMILES: CCCC[C@H](NC(=O)[C@@H](NC(=O)[C@H](CC(=O)O)NC(=O)[C@H](CCC(N)=O)NC(=O)[C@H](CC(C)C)NC(=O)[C@H](CC(C)C)NC(=O)[C@H](CCCN)NC(=O)[C@H](CCCNC(=N)N)NC(=O)[C@H](C)NC(=O)[C@H](CO)NC(=O)[C@H](CC(C)C)NC(=O)[C@H](CCC(N)=O)NC(=O)[C@H](CC)NC(=O)[C@H](CC(C)C)NC(=O)[C@@H](NC(=O)[C@H](CCCN)NC(=O)[C@H](CCCNC(=N)N)NC(=O)[C@H](Cc1ccc(O)cc1)NC(=O)[C@H](CO)NC(=O)[C@H](CC(N)=O)NC(=O)[C@@H](NC(=O)[C@H](Cc1ccccc1)NC(=O)[C@@H](NC(=O)[C@H](C)NC(=O)[C@H](CC(=O)O)NC(=O)[C@H](C)NC(=O)[C@H](Cc1ccc(O)cc1)NC)[C@@H](C)CC)[C@@H](C)O)C(C)C)[C@@H](C)CC)C(=O)N[C@@H](CC(=O)O)C(=O)N[C@@H](CCCNC(=N)N)C(=O)NCCCCCCCC(N)=O
B4: P-29703 [N-Me-Tyr^1, Gln^8, Orn^12, Abu^15, Orn^21, Nle^27, Gln-Gab^30]hGHRH(1-30)NH2 (peptide)
chain: [NMeY]ADAIFTQSYR[Orn]VL[Abu]QLSAR[Orn]LLQDI[Nle]SRQ[GABA]-NH2
modifications: N-terminus assumed
SMILES: CCCC[C@H](NC(=O)[C@@H](NC(=O)[C@H](CC(=O)O)NC(=O)[C@H](CCC(N)=O)NC(=O)[C@H](CC(C)C)NC(=O)[C@H](CC(C)C)NC(=O)[C@H](CCCN)NC(=O)[C@H](CCCNC(=N)N)NC(=O)[C@H](C)NC(=O)[C@H](CO)NC(=O)[C@H](CC(C)C)NC(=O)[C@H](CCC(N)=O)NC(=O)[C@H](CC)NC(=O)[C@H](CC(C)C)NC(=O)[C@@H](NC(=O)[C@H](CCCN)NC(=O)[C@H](CCCNC(=N)N)NC(=O)[C@H](Cc1ccc(O)cc1)NC(=O)[C@H](CO)NC(=O)[C@H](CCC(N)=O)NC(=O)[C@@H](NC(=O)[C@H](Cc1ccccc1)NC(=O)[C@@H](NC(=O)[C@H](C)NC(=O)[C@H](CC(=O)O)NC(=O)[C@H](C)NC(=O)[C@H](Cc1ccc(O)cc1)NC)[C@@H](C)CC)[C@@H](C)O)C(C)C)[C@@H](C)CC)C(=O)N[C@@H](CO)C(=O)N[C@@H](CCCNC(=N)N)C(=O)N[C@@H](CCC(N)=O)C(=O)NCCCC(N)=O
B5: P-27413 [Dat^1, Gln^8, His^11, Orn^12, Abu^15, His^20, Orn^21, Nle^27, Asp^28]hGHRH(1-29)NH-CH3 (peptide)
chain: [Desaminotyrosyl]ADAIFTQSYH[Orn]VL[Abu]QLSAH[Orn]LLQDI[Nle]DR-NHMe
SMILES: CCCC[C@H](NC(=O)[C@@H](NC(=O)[C@H](CC(=O)O)NC(=O)[C@H](CCC(N)=O)NC(=O)[C@H](CC(C)C)NC(=O)[C@H](CC(C)C)NC(=O)[C@H](CCCN)NC(=O)[C@H](Cc1c[nH]cn1)NC(=O)[C@H](C)NC(=O)[C@H](CO)NC(=O)[C@H](CC(C)C)NC(=O)[C@H](CCC(N)=O)NC(=O)[C@H](CC)NC(=O)[C@H](CC(C)C)NC(=O)[C@@H](NC(=O)[C@H](CCCN)NC(=O)[C@H](Cc1c[nH]cn1)NC(=O)[C@H](Cc1ccc(O)cc1)NC(=O)[C@H](CO)NC(=O)[C@H](CCC(N)=O)NC(=O)[C@@H](NC(=O)[C@H](Cc1ccccc1)NC(=O)[C@@H](NC(=O)[C@H](C)NC(=O)[C@H](CC(=O)O)NC(=O)[C@H](C)NC(=O)CCc1ccc(O)cc1)[C@@H](C)CC)[C@@H](C)O)C(C)C)[C@@H](C)CC)C(=O)N[C@@H](CC(=O)O)C(=O)N[C@@H](CCCNC(=N)N)C(=O)NC
B6: P-27415 [N-Me-Tyr^1, Orn^12, Abu^15, Orn^21, Nle^27, Gab^30]hGHRH(1-30)NH-CH3 (peptide)
chain: [NMeY]ADAIFTNSYR[Orn]VL[Abu]QLSAR[Orn]LLQDI[Nle]SR[GABA]-NHMe
B7: P-25503 [N-Me-Tyr^1, Abu^2, Orn^12, Abu^15, Orn^21, Nle^27, Gab^30]hGHRH(1-30)NH2 (peptide)
chain: [NMeY][Abu]DAIFTNSYR[Orn]VL[Abu]QLSAR[Orn]LLQDI[Nle]SR[GABA]-NH2
modifications: N-terminus assumed
SMILES: CCCC[C@H](NC(=O)[C@@H](NC(=O)[C@H](CC(=O)O)NC(=O)[C@H](CCC(N)=O)NC(=O)[C@H](CC(C)C)NC(=O)[C@H](CC(C)C)NC(=O)[C@H](CCCN)NC(=O)[C@H](CCCNC(=N)N)NC(=O)[C@H](C)NC(=O)[C@H](CO)NC(=O)[C@H](CC(C)C)NC(=O)[C@H](CCC(N)=O)NC(=O)[C@H](CC)NC(=O)[C@H](CC(C)C)NC(=O)[C@@H](NC(=O)[C@H](CCCN)NC(=O)[C@H](CCCNC(=N)N)NC(=O)[C@H](Cc1ccc(O)cc1)NC(=O)[C@H](CO)NC(=O)[C@H](CC(N)=O)NC(=O)[C@@H](NC(=O)[C@H](Cc1ccccc1)NC(=O)[C@@H](NC(=O)[C@H](C)NC(=O)[C@H](CC(=O)O)NC(=O)[C@H](CC)NC(=O)[C@H](Cc1ccc(O)cc1)NC)[C@@H](C)CC)[C@@H](C)O)C(C)C)[C@@H](C)CC)C(=O)N[C@@H](CO)C(=O)N[C@@H](CCCNC(=N)N)C(=O)NCCCC(N)=O

Data on seven molecules can be found in patent publication US20140193378A1 (UNIVERSITY OF MIAMI, published 2014).

Usually IC50 stands for the concentration needed to halve the response being measured. Lower therefore signals inhibition by little substance.

Non-standard residues stand in square brackets, D forms with d. No end group written: not given here. *: point of attachment. Desaminotyrosyl = O=C(CCc1ccc(O)cc1)*; NMeY = CN[C@@H](Cc1ccc(O)cc1)C(=O)O; Nle = CCCC[C@H](N)C(=O)O; Orn = NCCC[C@H](N)C(=O)O; dAbu = CC[C@@H](N)C(=O)O; Abu = CC[C@H](N)C(=O)O; Aoc = NCCCCCCCC(=O)O; GABA = NCCCC(=O)O

The first experiment deals with T1, human GHRH receptor (human pituitary …). Kind of experiment: radioligand competition vs 125I-JV-1-42 (0.2 nM), human pituitary membranes. From the text:
Normal human pituitaries were purchased from the National Hormone and Peptide Program (A. F. Parlow, Los Angeles, County Harbor-UCLA Medical Center, Torrance, Calif.).
Consider B1, for which the “Relative affinity (Binding potency) vs JI-38” value amounted to 3.02 fold.

For the next experiment, the target named is T2, human GHRH receptor (human pituitary …). The description is as above.
As for B2, the IC50 turned out to be 1.08 nM and the Relative affinity (Binding potency) vs JI-38 worked out at 4.03 fold.
For B3, in that order: 2.99 nM and 1.45 fold.
B4 displayed a Relative affinity (Binding potency) vs JI-38 of 3.57 fold.
For B5, the IC50 amounted to 2.45 nM and the Relative affinity (Binding potency) vs JI-38 was 1.78 fold.
As to B6, the IC50 came to 3.02 nM and the Relative affinity (Binding potency) vs JI-38 was determined as 1.44 fold.
Take B7: the IC50 is 1.18 nM and the Relative affinity (Binding potency) vs JI-38 was 3.67 fold.
